Source: patent US20250361298A1

How the values were obtained:
[1] = target: T1, Human LY6G6D ectodomain fused to mouse IgG2A Fc (monovalent display, knob-in-hole) (human); test: SPR, Biacore 8K+, LY6G6D-mouse Fc captured by anti-mouse antibody on CM5, antibody as analyte 50-0.7813 nM, 25 C
T1 sequence (O95868 whole entry, looked up): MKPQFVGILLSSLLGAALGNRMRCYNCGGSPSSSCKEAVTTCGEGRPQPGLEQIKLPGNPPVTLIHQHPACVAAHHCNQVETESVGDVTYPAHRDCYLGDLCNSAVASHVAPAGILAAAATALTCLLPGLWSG

[2] = target: Cynomolgus LY6G6D ectodomain fused to mouse IgG2A Fc (monovalent display, knob-in-hole) (cynomolgus); test: SPR, Biacore 8K+, cyno LY6G6D-mouse Fc captured by anti-mouse antibody on CM5, antibody as analyte 50-0.7813 nM, 25 C
Chain of Cynomolgus LY6G6D ectodomain fused to mouse IgG2A Fc (monovalent display, knob-in-hole) (cynomolgus) (O95868 other isoform, or with tags, fused parts or gaps limits assumed): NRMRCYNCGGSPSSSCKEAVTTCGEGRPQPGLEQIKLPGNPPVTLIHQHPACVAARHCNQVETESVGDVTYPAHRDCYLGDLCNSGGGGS

B1: 20A12.QNTv12 (antibody, from another filing, V domains shown)
VH: EVQLLESGGGLVQPGGSLRLSCAASGFDFVNNAMIWVRQAPGKGLEWVSALSFADNTAYYATWASGRFTISRDSSKTTVYLQMNSLRAEDTAVYYCMRGDLWGPGTLVTVSS
VL: DIQMTQSPSTLSASVGDRVTITCQASESITRYLNWYQQKPGKAPKLLIYDASKLPSGVPSRFSGSGSGTEFTLTISSLQPDDFATYYCQSTSFRGRSYQNTFGGGTKVEIKR
**Q.** For B1, which Kd [1] is on record?
**A.** The Kd was 3.67 nM.

**Q.** What about the kon [1] of the same binder?
**A.** Its kon is 109000 M⁻¹ s⁻¹.

**Q.** What about the Kd [2] of the same binder?
**A.** Its Kd is 3.4 nM.

**Q.** What about the koff [2] of the same binder?
**A.** The koff was 0.00038 s⁻¹.

**Q.** What about the kon [2] of the same binder?
**A.** The kon was 112000 M⁻¹ s⁻¹.
